Source: the supplement of paper PMC9732359
± gives the uncertainty stated by the source.

Test: protein stability index of a GFP-peptide fusion (yeast GPS) (PSI 1-4); higher = more stable; sorted into four equal gates, so the index is relative within each strain
How it was run: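 Tiled yeast protein peptides of 17 residues were each joined downstream of GFP, on plasmids that also express Cherry. The pooled library was maintained in yeast, and mid-log cultures in leucine-free medium were sorted into four equal gates on the GFP/Cherry ratio. Plasmids from every gate were amplified by PCR and sequenced on Illumina, with barcodes linking reads to strains. The protein stability index of a peptide is its gate-number-weighted read frequency summed over the gates.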

Row | Sequence | protein stability index (doa10∆) | protein stability index (pdr5∆) | protein stability index (san1∆) | protein stability index (ubr1∆)
1 | NTSVLMKLKLMIVYYKD [YCS4] | 1.56 ± 0.15 | 1.56 ± 0.12 | 1.32 ± 0.21 | 1.29 ± 0.11
2 | PFSEGVTFSVMPPKKSW [SMC4] | 2.48 ± 0.091 | 2.03 ± 0.074 | 2.2 ± 0.11 | 2.57 ± 0.077
3 | DKLTRVHDKIWCCRSGS [PRE3] | 2.78 ± 0.061 | 2.68 ± 0.068 | 2.67 ± 0.056 | 2.9 ± 0.032
4 | FSKIAEYYRIQKQLPQK [ESC2] | 3.18 ± 0.16 | 2.99 ± 0.15 | 3.26 ± 0.088 | 3.19 ± 0.17
5 | NPHQKDQLIISSSANKL [YML103C/NUP188] | 2.45 ± 0.15 | 2.71 ± 0.094 | 2.29 ± 0.15 | 2.78 ± 0.069
6 | AARDNKKTRIIPRHLQL [HTA1] | 3.04 ± 0.18 | 3.38 ± 0.11 | 3.37 ± 0.13 | 3.15 ± 0.19
7 | QELISKAFTNWNKRDFM [ISW2] | 2.27 ± 0.14 | 3.55 ± 0.23 | 1.59 ± 0.15 | 2.89 ± 0.25
8 | QQTEHETEIKDLTQLLE [SMC4] | 3.44 ± 0.083 | 3.26 ± 0.048 | 3.31 ± 0.045 | 3.34 ± 0.046
9 | HGSIIILGMLSLADNEI [YCS4] | 1.99 ± 0.069 | 2.04 ± 0.069 | 2.05 ± 0.1 | 2.25 ± 0.075
10 | LHVLPTLNSRALSGLYY [SNM1] | 2.45 ± 0.052 | 2.45 ± 0.05 | 2.12 ± 0.065 | 2.31 ± 0.042
11 | GNLIGVDPFDSDEEESV [SNU114] | 3.03 ± 0.075 | 3.14 ± 0.059 | 3 ± 0.057 | 3.2 ± 0.054
12 | MKHLGRSEGNPVIGVFQ [FAS2] |  | 2.78 ± 0.08 | 2.9 ± 0.094 | 3.01 ± 0.093
13 | NNHNMRNNSNNKTSNNN [SWI1] | 2.56 ± 0.088 | 2.55 ± 0.068 | 1.85 ± 0.093 | 2.6 ± 0.049
14 | GSELVQKYVGEGARMVR [RPT1] | 2.57 ± 0.22 | 2.84 ± 0.085 | 3 ± 0.085 | 2.81 ± 0.05
15 | DNLGQTKIIMATNRPDT [RPT4] | 2.76 ± 0.084 | 2.56 ± 0.1 | 2.79 ± 0.079 | 2.67 ± 0.079
16 | KVTQMTPAPKISYKKGA [RPL36B] | 3.12 ± 0.13 | 3.27 ± 0.11 | 3.31 ± 0.061 | 3.21 ± 0.1
17 | ELISFKERTKSLEHELK [YIL149C/MLP2] | 2.24 ± 0.062 | 2.64 ± 0.064 | 2.78 ± 0.073 | 2.78 ± 0.083
18 | WIQVFGLRTENVLDYFA [MED6] |  |  | 2.38 ± 0.14 | 2.34 ± 0.067
19 | RTSATREDTPLSQNEST [ISW2] | 2.99 ± 0.072 | 3.16 ± 0.064 | 2.93 ± 0.062 | 2.96 ± 0.05
20 | LNHRNKNQHRAASWYGS [RMP1] | 2.86 ± 0.092 | 3.31 ± 0.07 | 3.17 ± 0.056 | 3.06 ± 0.044
21 | FDNYQRNNFLAENSHTQ [PUP1] | 3.3 ± 0.081 | 3.26 ± 0.075 | 3.17 ± 0.058 | 3.19 ± 0.044
22 | ERAAQKLRLDQLVIQQG [ISW2] | 2.49 ± 0.11 | 2.52 ± 0.094 | 2.74 ± 0.082 | 2.42 ± 0.069
23 | GTPLFTFGKKADVTSNI [YOR098C/NUP1] | 1.82 ± 0.05 | 1.92 ± 0.046 | 1.51 ± 0.11 | 2.18 ± 0.036
24 | ETFQDTFSGALGKQSSS [FAS2] | 3.23 ± 0.063 | 3.32 ± 0.066 | 3.15 ± 0.039 | 3.11 ± 0.055
25 | INGWELTKAQKYLDQVL [RPL17B] | 2.74 ± 0.2 | 2.9 ± 0.17 | 2.86 ± 0.1 | 2.74 ± 0.063
26 | ARKSAPSTGGVKKPHRY [HHT1] | 1.66 ± 0.065 | 1.87 ± 0.052 | 2.03 ± 0.075 | 2.03 ± 0.063
27 | QHEQQKQQEQLEQQKQP [YMR153W/NUP53] | 3.37 ± 0.056 | 3.35 ± 0.057 | 3.04 ± 0.049 | 3.15 ± 0.046
